Reference: patent publication US20220177587A1, “METHODS AND USES OF VARIANT CD80 FUSION PROTEINS AND RELATED CONSTRUCTS” (Alpine Immune Sciences, Inc., priority 2018, published 2022)

B1: variant CD80 IgV-Fc E35D/M47V/N48T/L85Q (Fc fusion)
chain: VIHVTKEVKEVATLSCGHNVSVEELAQTRIYWQKDKKMVLTMMSGDVTIWPEYKNRTIFDITNNLSIVILALRPSDEGTYECVVQKYEKDAFKREHLAEVTLSVKAD
B2: variant CD80 IgV-Fc V22A/E35D/V68E/A71D (Fc fusion)
chain: VIHVTKEVKEVATLSCGHNVSAEELAQTRIYWQKDKKMVLTMMSGDMNIWPEYKNRTIFDITNNLSIEILDLRPSDEGTYECVVLKYEKDAFKREHLAEVTLSVKAD
B3: variant CD80 IgV-Fc A26E/Q33R/E35D/M47L/L85Q (Fc fusion)
chain: VIHVTKEVKEVATLSCGHNVSVEELEQTRIYWRKDKKMVLTMMSGDLNIWPEYKNRTIFDITNNLSIVILALRPSDEGTYECVVQKYEKDAFKREHLAEVTLSVKAD
B4: variant CD80 IgV-Fc A26E/Q33R/E35D/M47L/L85Q/K86E (Fc fusion)
chain: VIHVTKEVKEVATLSCGHNVSVEELEQTRIYWRKDKKMVLTMMSGDLNIWPEYKNRTIFDITNNLSIVILALRPSDEGTYECVVQEYEKDAFKREHLAEVTLSVKAD
B5: variant CD80 IgV-Fc E35D/M47V/A71G/E88D (Fc fusion)
chain: VIHVTKEVKEVATLSCGHNVSVEELAQTRIYWQKDKKMVLTMMSGDVNIWPEYKNRTIFDITNNLSIVILGLRPSDEGTYECVVLKYDKDAFKREHLAEVTLSVKAD
B6: variant CD80 IgV-Fc H18Y/A26E/E35D/M47L/L85Q/D90G (Fc fusion)
chain: VIHVTKEVKEVATLSCGYNVSVEELEQTRIYWQKDKKMVLTMMSGDLNIWPEYKNRTIFDITNNLSIVILALRPSDEGTYECVVQKYEKGAFKREHLAEVTLSVKAD
B7: variant CD80 IgV-Fc Q33K/E35D/M47V/K89E/K93R (Fc fusion)
chain: VIHVTKEVKEVATLSCGHNVSVEELAQTRIYWKKDKKMVLTMMSGDVNIWPEYKNRTIFDITNNLSIVILALRPSDEGTYECVVLKYEEDAFRREHLAEVTLSVKAD
B8: variant CD80 IgV-Fc Q33L/E35D/T41S/M47V (Fc fusion)
chain: VIHVTKEVKEVATLSCGHNVSVEELAQTRIYWLKDKKMVLSMMSGDVNIWPEYKNRTIFDITNNLSIVILALRPSDEGTYECVVLKYEKDAFKREHLAEVTLSVKAD
B9: variant CD80 IgV-Fc H18Y/A26E/Q33L/E35D/M47L/L85Q (Fc fusion)
chain: VIHVTKEVKEVATLSCGYNVSVEELEQTRIYWLKDKKMVLTMMSGDLNIWPEYKNRTIFDITNNLSIVILALRPSDEGTYECVVQKYEKDAFKREHLAEVTLSVKAD
B10: variant CD80 IgV-Fc E35D/T41S/M43I/M47L/A71G (Fc fusion)
chain: VIHVTKEVKEVATLSCGHNVSVEELAQTRIYWQKDKKMVLSMISGDLNIWPEYKNRTIFDITNNLSIVILGLRPSDEGTYECVVLKYEKDAFKREHLAEVTLSVKAD
B11: variant CD80 IgV-Fc A26E/Q33L/E35D/M47L (Fc fusion)
chain: VIHVTKEVKEVATLSCGHNVSVEELEQTRIYWLKDKKMVLTMMSGDLNIWPEYKNRTIFDITNNLSIVILALRPSDEGTYECVVLKYEKDAFKREHLAEVTLSVKAD
B12: variant CD80 IgV-Fc A26E/Q33L/E35D/M47L/L85Q (Fc fusion)
chain: VIHVTKEVKEVATLSCGHNVSVEELEQTRIYWLKDKKMVLTMMSGDLNIWPEYKNRTIFDITNNLSIVILALRPSDEGTYECVVQKYEKDAFKREHLAEVTLSVKAD

Legend:
CD28 (human) [1] = target: CD28 (human) (UniProt P10747); assay: flow cytometry, Jurkat/IL2 reporter cells (CD28)
human PD-L1 (human) [2] = target: human PD-L1 (human) (UniProt Q9NZQ7); assay: flow cytometry, CHO cells expressing huPD-L1
human PD-L1 (human), sequence (Q9NZQ7 19-290): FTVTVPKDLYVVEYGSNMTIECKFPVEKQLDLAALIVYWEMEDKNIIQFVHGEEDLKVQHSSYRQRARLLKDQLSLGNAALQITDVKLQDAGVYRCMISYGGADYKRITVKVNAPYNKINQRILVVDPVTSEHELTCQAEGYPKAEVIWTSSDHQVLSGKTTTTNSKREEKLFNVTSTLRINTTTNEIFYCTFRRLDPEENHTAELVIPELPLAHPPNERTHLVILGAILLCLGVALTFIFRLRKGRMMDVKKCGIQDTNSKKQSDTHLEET

CD28 (human) [3] = target: CD28 (human) (UniProt P10747); assay: flow cytometry, Jurkat/IL2 reporter cells (endogenous CD28)
human CTLA-4 (human) [4] = target: human CTLA-4 (human) (UniProt P16410); assay: flow cytometry, CHO cells expressing huCTLA4
human CTLA-4 (human), sequence (P16410 36-223): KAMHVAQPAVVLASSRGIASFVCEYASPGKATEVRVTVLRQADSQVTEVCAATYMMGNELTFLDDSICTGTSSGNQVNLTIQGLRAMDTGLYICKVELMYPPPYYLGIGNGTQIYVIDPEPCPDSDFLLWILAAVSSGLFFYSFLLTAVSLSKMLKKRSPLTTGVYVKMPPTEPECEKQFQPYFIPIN

human PD-L1 (human) [5] = target: human PD-L1 (human) (UniProt Q9NZQ7); assay: flow cytometry; binding to PD-L1 cells against binding of the same variant to CD28 cells
CD28 (human) [6] = target: CD28 (human) (UniProt P10747); assay: flow cytometry, Jurkat/IL2 reporter cells (endogenous CD28); MFI ratio to WT CD80 ECD-Fc (R&D)
human PD-L1 (human) [7] = target: human PD-L1 (human) (UniProt Q9NZQ7); assay: flow cytometry, CHO cells expressing huPD-L1; MFI ratio to WT CD80 ECD-Fc (R&D)
human CTLA-4 (human) [8] = target: human CTLA-4 (human) (UniProt P16410); assay: flow cytometry, CHO cells expressing huCTLA4; MFI ratio to WT CD80 ECD-Fc (R&D)

Binder | MFI at 33.3 nM (CD28 (human) [1]) | MFI at 33.3 nM (human PD-L1 (human) [2]) | MFI at 33.3 nM (CD28 (human) [3]) | MFI at 33.3 nM (human CTLA-4 (human) [4]) | Ratio of PDL1:CD28 (human PD-L1 (human) [5]) | Fold change to WT (CD28 (human) [6]) | Fold change to WT (human PD-L1 (human) [7]) | Fold change to WT CD80 (human CTLA-4 (human) [8])
B1 | 692 MFI | 35500 MFI | – | – | – | – | – | –
B2 | – | 1350 MFI | 14000 MFI | 437000 MFI | – | – | – | –
B3 | – | 81500 MFI | 264 MFI | 1280 MFI | 309 | 0.03 fold | 10.3 fold | 0.01 fold
B4 | – | 76000 MFI | 275 MFI | 1280 MFI | 276 | 0.04 fold | 9.56 fold | 0.01 fold
B5 | 6240 MFI | 37100 MFI | – | 212000 MFI | – | – | – | –
B6 | 3540 MFI | 52400 MFI | – | 231000 MFI | – | – | – | –
B7 | – | 39100 MFI | 276 MFI | – | – | – | – | –
B8 | – | 43800 MFI | 287 MFI | 14500 MFI | 153 | 0.04 fold | 5.52 fold | 0.08 fold
B9 | – | 76600 MFI | 272 MFI | 2090 MFI | 282 | 0.04 fold | 9.64 fold | 0.01 fold
B10 | 3100 MFI | – | – | 209000 MFI | – | – | – | –
B11 | – | 60900 MFI | 271 MFI | 1320 MFI | 225 | 0.04 fold | 7.67 fold | 0.01 fold
B12 | – | 62700 MFI | 274 MFI | 1170 MFI | 229 | 0.04 fold | 7.89 fold | 0.01 fold
